Results from US20150355199A1 (ROCHE DIAGNOSTICS OPERATIONS, published 2015).

T1: CFHR2-GS-Avi-GS-His8 (human)
T1 construct: Tagged recombinant protein from HEK293 cells; also called recombinant CFHR2
T1 chain: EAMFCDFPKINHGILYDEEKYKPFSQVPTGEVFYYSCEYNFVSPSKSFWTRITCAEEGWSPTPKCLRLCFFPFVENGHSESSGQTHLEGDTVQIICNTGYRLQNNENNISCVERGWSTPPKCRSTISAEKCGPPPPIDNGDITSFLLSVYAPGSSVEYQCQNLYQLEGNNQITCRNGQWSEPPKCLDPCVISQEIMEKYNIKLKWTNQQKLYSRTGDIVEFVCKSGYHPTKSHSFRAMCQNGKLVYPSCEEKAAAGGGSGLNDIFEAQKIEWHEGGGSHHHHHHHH

T2: recombinant CFHR1-1-5 (tag-less, full-length mature human complement factor H-related protein 1) (human, UniProt Q03591 19-330)
T2 construct: also called recCFHR1
T2 sequence: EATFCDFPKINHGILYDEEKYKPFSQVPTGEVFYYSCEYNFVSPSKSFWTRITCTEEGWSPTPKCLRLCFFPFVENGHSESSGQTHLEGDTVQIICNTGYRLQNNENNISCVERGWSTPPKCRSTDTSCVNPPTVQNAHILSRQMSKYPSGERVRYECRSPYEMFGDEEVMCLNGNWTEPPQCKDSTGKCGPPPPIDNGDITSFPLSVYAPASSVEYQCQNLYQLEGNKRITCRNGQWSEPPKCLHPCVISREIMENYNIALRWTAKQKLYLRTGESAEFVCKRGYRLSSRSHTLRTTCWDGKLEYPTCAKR

T3: CFHR4-GS-Avi-GS-His8 (CFHR4 Variant B) (human)
T3 construct: Tagged recombinant protein from HEK293 cells; also called CFHR4B; recombinant CFHR4B
T3 chain: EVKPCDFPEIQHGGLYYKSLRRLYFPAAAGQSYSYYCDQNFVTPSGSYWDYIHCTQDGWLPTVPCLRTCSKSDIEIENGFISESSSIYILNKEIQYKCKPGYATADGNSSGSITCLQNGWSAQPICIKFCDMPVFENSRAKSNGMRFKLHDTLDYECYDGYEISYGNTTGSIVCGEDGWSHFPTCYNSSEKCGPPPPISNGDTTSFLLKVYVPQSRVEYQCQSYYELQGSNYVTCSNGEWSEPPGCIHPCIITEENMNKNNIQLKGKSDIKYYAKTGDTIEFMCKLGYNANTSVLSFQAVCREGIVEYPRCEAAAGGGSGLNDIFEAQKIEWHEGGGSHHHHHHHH

T4: CFHR5-GS-Avi-GS-His8 (human, UniProt Q9BXR6 19-569)
T4 construct: Tagged recombinant protein from HEK293 cells; also called recombinant CFHR5
T4 sequence: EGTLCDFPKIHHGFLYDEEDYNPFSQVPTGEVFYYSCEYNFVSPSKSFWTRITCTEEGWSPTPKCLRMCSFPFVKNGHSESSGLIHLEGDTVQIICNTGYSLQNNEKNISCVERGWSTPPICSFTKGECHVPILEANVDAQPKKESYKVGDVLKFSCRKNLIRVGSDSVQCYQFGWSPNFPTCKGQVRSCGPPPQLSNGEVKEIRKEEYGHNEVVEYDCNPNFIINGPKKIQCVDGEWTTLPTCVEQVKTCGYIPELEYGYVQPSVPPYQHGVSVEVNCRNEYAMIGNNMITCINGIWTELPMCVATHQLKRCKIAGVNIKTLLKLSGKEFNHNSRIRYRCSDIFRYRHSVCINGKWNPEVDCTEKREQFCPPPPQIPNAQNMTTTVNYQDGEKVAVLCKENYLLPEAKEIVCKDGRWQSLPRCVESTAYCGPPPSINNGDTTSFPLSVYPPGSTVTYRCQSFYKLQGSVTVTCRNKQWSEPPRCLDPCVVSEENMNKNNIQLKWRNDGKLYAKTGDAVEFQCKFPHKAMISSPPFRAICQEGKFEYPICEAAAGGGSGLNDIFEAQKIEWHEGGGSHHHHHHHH

T5: CFHR3-GS-Avi-GS-His8 (human, UniProt Q02985 19-330)
T5 construct: Tagged recombinant protein from HEK293 cells; also called recombinant CFHR3
T5 sequence: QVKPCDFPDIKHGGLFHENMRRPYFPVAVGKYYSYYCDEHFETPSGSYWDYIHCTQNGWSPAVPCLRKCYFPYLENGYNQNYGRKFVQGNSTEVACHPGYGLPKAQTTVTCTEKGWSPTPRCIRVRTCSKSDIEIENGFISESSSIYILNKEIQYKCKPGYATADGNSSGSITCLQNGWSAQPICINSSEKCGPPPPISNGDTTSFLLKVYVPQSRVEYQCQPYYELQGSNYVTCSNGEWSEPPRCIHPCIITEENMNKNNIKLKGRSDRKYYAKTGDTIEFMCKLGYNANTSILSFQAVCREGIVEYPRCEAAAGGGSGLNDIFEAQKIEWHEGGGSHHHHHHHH

B1: MAB<CFHR1>M-4.2.53 (antibody, V domains shown)
VH: QVQLKESGPGLVAPSQSLSITCTVSGFSLTSYGVHWVRQPPGKGLEWLGVIWAGGNTDYISALMSRLSISKDNSKSQVFLKINRLQTDDTAVYYCARDHYDGYYMEYWGQGTSVTVSP
VL: DIQMTQSPSSLSASLGGKVTITCKASQDINKYLAWYQHKPGKGPRLLIHYTFTLQPGIPSRFSGGGSGRDYSFNINNLEPEDIATYYCLQYDNLYTFGGGTKLEIKR
notes: In-house mouse monoclonal IgG; also called MAB<CFHR1>M-4.2.53-Ru
B2: MAB<CFHR1>M-4.2.74 (antibody, V domains shown)
VH: DVRLVESGGGLVQPGGSRKLSCAASGFTFSSFGMHWVRQAPEKGLEWVAYISSGSSTIYYADTVKGRFTISRDNPKNTLFLQMTSLRSEDTAMYYCARWGNSYAMDYWGQGTSVTVSS
VL: DIVMTQSPSSLTVTAGEKVTMSCKSSQSLLNRGNQKNYLTWYQQKPGQPPKLLIYWASTRESGVPDRFTGSGSGTDFTLTISSVLAEDLAVYYCQIAYSSPFTFGSGTKLEIKR
notes: In-house mouse monoclonal IgG; also called MAB<CFHR1>M-4.2.74-Ru
B3: MAB<CFHR1>M-5.3.23 (antibody, V domains shown)
VH: EVKLEESGGGLVQPGGSMKLSCDGSGFTFSDAWMGWVRQSPEKGLEWVSEIRNRANNHETHYAESVKGRFTISRDDSKSRVYLQMNSLRAEDTGIYYCNGRYYDSYWFLDVWGAGTTVTVSS
VL: NIVMTQTPKFLPVSVGDRVTMTCKASQSVGYNVAWFQQKPGQSPKLLIYYASNRYTGVPDRFTGSGGGTDFTFTISSVQVEDLAVYFCQQHYISPTFGSGTKLEIKR
notes: In-house mouse monoclonal IgG; also called MAB<CFHR1>M-5.3.23-Ru
B4: MAB<CFHR1>M-5.1.5 (antibody, V domains shown)
VH: EVQLVESGGDLVKPGGSLKLSCAASGFTFSSYDMSWVRQTPDKRLEWVATISSGGSNTYYPDSVKGRFTISRDNAKNTLYLQMSSLKSEDTAMYYCARQGYYYGSSYYAMDYWGQGTSVTVSS
VL: QIVLTQSPAIMSASPGEKVTMTCRASSSVSSSYLHWYQQKPGSSPKLWIYITSSLASGVPARFSGSGSGTSYSLTISSVEAEDGATYYCQQYHSSPYTFGSGTKLEIK
modifications: In the ECLIA sandwich assays the IgG was ruthenylated (Ru-(bpy)2-bpyCO-OSu). The BiaCore results used purified antibody with no label mentioned.
notes: It was used ruthenylated (-Ru) in the sandwich ECLIA; also called clone 5.1.5; MAK<CFHR1>M-5.1.5; copies: 2 + 2
B5: MAB<CFHR1>M-4.1.3 (antibody, V domains shown)
VH: DVQLQESGPGLVKPSQSLSLTCTVTGYSITSEYAWNWIRQFPGNKLEWMAYINSSGKSSYNPSLKSRISVTRDTSKNQFFLQLNSVTTEDTATYYCAREGYGNYPAWFAYWGQGTLVTVSA
VL: DIQMTQTTSSLSASLGDRVTISCSASQDINNYLNWYQQKPDGTVKLLIYYTSNLHSGVPSRFSGSGSGTDYSLTISNLEPEDIATYFCQQYSKLPRTFGGGTKLEIKR
notes: In-house mouse monoclonal IgG; also called MAB<CFHR1>M-4.1.3-Ru

What was measured:
CFHR2-GS-Avi-GS-His8 [1] = molecular target: T1, CFHR2-GS-Avi-GS-His8; assay: sandwich ECLIA, L20/3 Fab-Bi capture + 4.2.53-Ru detection (signal needs both antibodies); sample 50 µg/ml recombinant CFHR2
[2] = molecular target: T6, native human complement factor H (CFH) (human, UniProt P08603 19-1231); assay: indirect ELISA, hybridoma supernatant on CFH captured by biotinylated L20/3 Fab on streptavidin plates
T6 construct: Native CFH; also called native CFH; serum-purified CFH
Method: (§1) MAb production in hybridoma culture supernatants was assayed by indirect enzyme-linked immunosorbent assay (ELISA). Streptavidin coated microtiter plates (Microcoat, Bernried, Germany) were incubated with biotinylated Fab fragment of the MAB<CFH/CFHR1>M-L20/3 monoclonal antibody diluted 1:2000 in incubation buffer (phosphate buffered saline pH 7.3, 0.5% Byco C) for 1 h at room temperature. After washing with washing buffer (0.9% NaCl solution, 0.05% Tween 20) the microtiter plates were incubated for 1 h at room temperature with 100 ng/ml purified recombinant CFHR1 and CFH protein diluted in incubation buffer. The microtiter plates were washed again and hybridoma supernatants were added to the coated well and incubated for 1 h at room temperature. After washing, the bound monoclonal antibodies (MAbs) were detected by a 1 h incubation with goat anti-mouse IgG peroxidase conjugate (Calbiochem, Germany) diluted 1:5000 in incubation buffer followed by substrate reaction with ABTS solution (Roche, Germany) after further washing step. The color change was measured in an ELISA reader at 405/490 nm after 20-30 min. Some CFHR1-specific clones without any crossreactivity against CFH were selected.

[3] = molecular target: T2, recombinant CFHR1-1-5 (tag-less, …); assay: indirect ELISA, hybridoma supernatant on CFHR1 captured by biotinylated L20/3 Fab on streptavidin plates
Method: as §1

CFHR2-GS-Avi-GS-His8 [4] = molecular target: T1, CFHR2-GS-Avi-GS-His8; assay: sandwich ECLIA, L20/3 Fab-Bi capture + 4.2.53-Ru detection (signal needs both antibodies); sample 100 µg/ml recombinant CFHR2
CFHR2-GS-Avi-GS-His8 [5] = molecular target: T1, CFHR2-GS-Avi-GS-His8; assay: sandwich ECLIA, L20/3 Fab-Bi capture + 4.2.74-Ru detection (signal needs both antibodies); sample 50 µg/ml recombinant CFHR2
CFHR2-GS-Avi-GS-His8 [6] = molecular target: T1, CFHR2-GS-Avi-GS-His8; assay: sandwich ECLIA, L20/3 Fab-Bi capture + 4.2.74-Ru detection (signal needs both antibodies); sample 100 µg/ml recombinant CFHR2
CFHR2-GS-Avi-GS-His8 [7] = molecular target: T1, CFHR2-GS-Avi-GS-His8; assay: sandwich ECLIA, L20/3 Fab-Bi capture + 5.3.23-Ru detection (signal needs both antibodies); sample 50 µg/ml recombinant CFHR2
CFHR2-GS-Avi-GS-His8 [8] = molecular target: T1, CFHR2-GS-Avi-GS-His8; assay: sandwich ECLIA, L20/3 Fab-Bi capture + 5.3.23-Ru detection (signal needs both antibodies); sample 100 µg/ml recombinant CFHR2
[9] = molecular target: T3, CFHR4-GS-Avi-GS-His8 (CFHR4 Variant B); assay: SPR (BiaCore), antibody captured by rabbit anti-mouse IgG on CM5 chip; n.d. = not detectable
Method: (§2) The antibodies MAB<CFH/CFHR1>M-L20/3, MAB<CFHR1>M-442127, MAB<CFHR1>M-4.1.3 and MAB<CFHR1>M-5.1.5 were analyzed on the BiaCore. The chip CM5 coated with a rabbit anti-Mouse IgG was used to bind the purified monoclonal mouse antibodies. In the next step native CFH or the recombinant CFHR1, CFHR2, CFHR3, CFHR4B or CFHR5 proteins according to SEQ ID No.: 9 to 13 were added to determine the binding affinities of the different antibodies.

CFHL1-GS-Avi-GS-His8 = molecular target: T7, CFHL1-GS-Avi-GS-His8 (human, UniProt P08603 19-445); assay: as above
T7 construct: also called complement factor H isoform 2
Method: as §2

[10] = molecular target: T6, native human complement factor H (CFH); assay: as above
Method: as §2

CFHR5-GS-Avi-GS-His8 = molecular target: T4, CFHR5-GS-Avi-GS-His8; assay: as above
Method: as §2

CFHR3-GS-Avi-GS-His8 = molecular target: T5, CFHR3-GS-Avi-GS-His8; assay: as above
Method: as §2

CFHR2-GS-Avi-GS-His8 [11] = molecular target: T1, CFHR2-GS-Avi-GS-His8; assay: SPR (BiaCore), antibody captured by rabbit anti-mouse IgG on CM5 chip, antigen in solution
Method: as §2

[12] = molecular target: T2, recombinant CFHR1-1-5 (tag-less, …); assay: as above
Method: as §2

Row | Binder | binding result [2] | binding result [3] | binding result [9] | binding result (CFHL1-GS-Avi-GS-His8) | binding result [10] | binding result (CFHR5-GS-Avi-GS-His8) | binding result (CFHR3-GS-Avi-GS-His8) | Kd (CFHR2-GS-Avi-GS-His8 [11]) [nM] | Kd [12] [nM] | further results
1 | B1 | no binding (tested: 100 ng/ml CFH) | binds | – | – | – | – | – | – | – | Measured CFHR1 (CFHR2-GS-Avi-GS-His8 [1]): 0 µg/mL; Measured CFHR1 (CFHR2-GS-Avi-GS-His8 [4]): 0.09 µg/mL
2 | B2 | no binding (tested: 100 ng/ml CFH) | binds | – | – | – | – | – | – | – | Measured CFHR1 (CFHR2-GS-Avi-GS-His8 [5]): 0 µg/mL; Measured CFHR1 (CFHR2-GS-Avi-GS-His8 [6]): 0 µg/mL
3 | B3 | no binding (tested: 100 ng/ml CFH) | binds | – | – | – | – | – | – | – | Measured CFHR1 (CFHR2-GS-Avi-GS-His8 [7]): 0 µg/mL; Measured CFHR1 (CFHR2-GS-Avi-GS-His8 [8]): 0 µg/mL
4 | B4 | – | – | no binding | no binding | no binding | no binding | no binding | 0.3 | 0.01 | –
5 | B5 | – | – | no binding | no binding | no binding | no binding | no binding | 19 | 0.8 | –
